Earlier results as cited in US20150056205A1, “STEROID SPARING AGENTS AND METHODS OF USING SAME” (BIOGEN IDEC MA INC., priority 2004, published 2015).

Key:
VLA-4 = VLA-4 (Homo sapiens, UniProt P13612); conditions: cited from earlier work
α4 subunit of VLA-4 = molecular target: T1, α4 subunit of VLA-4 (Homo sapiens, UniProt P13612); conditions: rat brain cells stimulated with tumor necrosis factor; cited from earlier work
T1 construct: endogenous in cells; host or cells: human lymphocytes (adhering to TNF-stimulated rat brain cell cultures)

B1: mu MAb 21.6: mouse monoclonal antibody specific for the α4 subunit of VLA-4; donor immunoglobulin for the humanized antibodies (antibody, V domains shown)
VH: MKCSWVMFFLMAVVTGVNSEVQLQQSGAELVKPGASVKLSCTASGFNIKDTYIHCVKQRPEQGLEWIGRIDPANGYTKYDPKFQGKATITADTSSNTAYLQLSSLTSEDTAVYFCAREGYYGNYGVYAMDYWGQGTSVTV
VL: DIQMTQSPSSLSASLGGKVTITCKTSQDINKYMAWYQHKPGKRPRLLIHYTSALQPGIPSRFSGSGSGRDYSFNISNLEPEDIATYYCLQYDNLWTFGGGTKLEIK
VLA-4
  binding affinity for VLA-4: about 10^9 M^−1
α4 subunit of VLA-4
  inhibition of human lymphocyte binding to tissue cultures of rat brain cells: inhibit human lymphocyte binding
